Measured values as given in the supplement of paper PMC9112550, “Optimization of the antimicrobial peptide Bac7 by deep mutational scanning” (BMC Biology, 2022).

System: Escherichia coli TOP10
Test: shrunken log2 fold change of peptide-encoding DNA abundance (4.5 h post-induction vs induction); higher = less antimicrobial activity (less host growth inhibition)
Conditions: time post-induction: 4.5 h; library: site-saturation at positions 5, 18, 19, 20
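Note: peptides expressed intracellularly from a pBAD plasmid library in pooled LB shake-flask culture, induced with 0.3% L-arabinose, DNA abundance read by NGS, three biological replicates, DESeq2 with apeglm shrinkage.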

## RRIRYRPPRLPRPRPRPGGVPRP
  shrunken log2 fold change: -0.332

## RRIRMRPPRLPRPRPRPKDKPRP
  shrunken log2 fold change: 1.93

## RRIRYRPPRLPRPRPRPAFIPRP
  shrunken log2 fold change: -0.24

## RRIRDRPPRLPRPRPRPLNQPRP
  shrunken log2 fold change: -0.009

## RRIRWRPPRLPRPRPRPDYQPRP
  shrunken log2 fold change: -0.101

## RRIRPRPPRLPRPRPRPQFHPRP
  shrunken log2 fold change: -0.3

## RRIRPRPPRLPRPRPRPFWKPRP
  shrunken log2 fold change: 0.0756

## RRIRRRPPRLPRPRPRPHDQPRP
  shrunken log2 fold change: 0.0964

## RRIRLRPPRLPRPRPRPHLAPRP
  shrunken log2 fold change: 0.053

## RRIRPRPPRLPRPRPRPYPSPRP
  shrunken log2 fold change: -0.65

## RRIRSRPPRLPRPRPRPHEEPRP
  shrunken log2 fold change: 0.0919

## RRIRLRPPRLPRPRPRPVDGPRP
  shrunken log2 fold change: 0.0489

## RRIRYRPPRLPRPRPRPYWRPRP
  shrunken log2 fold change: 0.0608

## RRIRHRPPRLPRPRPRPVDWPRP
  shrunken log2 fold change: 0.15

## RRIRVRPPRLPRPRPRPGWLPRP
  shrunken log2 fold change: 0.543

## RRIRVRPPRLPRPRPRPIFRPRP
  shrunken log2 fold change: 0.0423

## RRIRTRPPRLPRPRPRPMNHPRP
  shrunken log2 fold change: -0.0849

## RRIRHRPPRLPRPRPRPQKPPRP
  shrunken log2 fold change: -0.0624

## RRIRSRPPRLPRPRPRPLVYPRP
  shrunken log2 fold change: -0.206

## RRIRDRPPRLPRPRPRPYSFPRP
  shrunken log2 fold change: -0.0868

## RRIRNRPPRLPRPRPRPYGNPRP
  shrunken log2 fold change: -0.287

## RRIRCRPPRLPRPRPRPTWSPRP
  shrunken log2 fold change: 0.346

## RRIRTRPPRLPRPRPRPTGSPRP
  shrunken log2 fold change: 0.0948

## RRIRKRPPRLPRPRPRPFCAPRP
  shrunken log2 fold change: 0.588

## RRIRKRPPRLPRPRPRPCGHPRP
  shrunken log2 fold change: 0.0693

## RRIRHRPPRLPRPRPRPGSIPRP
  shrunken log2 fold change: -0.209

## RRIRARPPRLPRPRPRPAQAPRP
  shrunken log2 fold change: 0.939

## RRIRYRPPRLPRPRPRPMCMPRP
  shrunken log2 fold change: -0.214

## RRIRGRPPRLPRPRPRPMMQPRP
  shrunken log2 fold change: 1

## RRIRFRPPRLPRPRPRPMRFPRP
  shrunken log2 fold change: -0.0257

## RRIRQRPPRLPRPRPRPVNIPRP
  shrunken log2 fold change: 0.0209

## RRIRGRPPRLPRPRPRPHHGPRP
  shrunken log2 fold change: 0.0719

## RRIRTRPPRLPRPRPRPLIMPRP
  shrunken log2 fold change: -0.718

## RRIRKRPPRLPRPRPRPHSFPRP
  shrunken log2 fold change: -0.0644

## RRIRNRPPRLPRPRPRPMPCPRP
  shrunken log2 fold change: 0.05

## RRIRIRPPRLPRPRPRPPCHPRP
  shrunken log2 fold change: -0.463

## RRIRRRPPRLPRPRPRPAVEPRP
  shrunken log2 fold change: -0.0125

## RRIRERPPRLPRPRPRPIYPPRP
  shrunken log2 fold change: -0.0605

## RRIRWRPPRLPRPRPRPFRMPRP
  shrunken log2 fold change: -0.122

## RRIRIRPPRLPRPRPRPGGPPRP
  shrunken log2 fold change: 0.0365

## RRIRERPPRLPRPRPRPSHPPRP
  shrunken log2 fold change: -0.481

## RRIRRRPPRLPRPRPRPSDTPRP
  shrunken log2 fold change: -0.0536

## RRIRNRPPRLPRPRPRPRDNPRP
  shrunken log2 fold change: 0.104

## RRIRARPPRLPRPRPRPASRPRP
  shrunken log2 fold change: 0.44

## RRIRARPPRLPRPRPRPRYYPRP
  shrunken log2 fold change: -0.116

## RRIRNRPPRLPRPRPRPCFVPRP
  shrunken log2 fold change: -0.147

## RRIRPRPPRLPRPRPRPFFPPRP
  shrunken log2 fold change: -0.135

## RRIRGRPPRLPRPRPRPDIWPRP
  shrunken log2 fold change: 0.598

## RRIRRRPPRLPRPRPRPFMDPRP
  shrunken log2 fold change: -0.148

## RRIRSRPPRLPRPRPRPHRGPRP
  shrunken log2 fold change: -0.128

## RRIRTRPPRLPRPRPRPINTPRP
  shrunken log2 fold change: -0.687

## RRIRERPPRLPRPRPRPYKFPRP
  shrunken log2 fold change: -0.835

## RRIRKRPPRLPRPRPRPGKTPRP
  shrunken log2 fold change: -0.0179

## RRIRYRPPRLPRPRPRPGSKPRP
  shrunken log2 fold change: -0.0678

## RRIRLRPPRLPRPRPRPCDCPRP
  shrunken log2 fold change: -0.0629

## RRIRYRPPRLPRPRPRPDWHPRP
  shrunken log2 fold change: -0.32

## RRIRIRPPRLPRPRPRPGMKPRP
  shrunken log2 fold change: -0.126

## RRIRGRPPRLPRPRPRPEMFPRP
  shrunken log2 fold change: 0.0463

## RRIRERPPRLPRPRPRPRSWPRP
  shrunken log2 fold change: 0.0987

## RRIRRRPPRLPRPRPRPVRCPRP
  shrunken log2 fold change: 0.424

## RRIRCRPPRLPRPRPRPGTPPRP
  shrunken log2 fold change: 0.0685

## RRIRDRPPRLPRPRPRPYCKPRP
  shrunken log2 fold change: 0.0343

## RRIRWRPPRLPRPRPRPTKFPRP
  shrunken log2 fold change: 0.142

## RRIRARPPRLPRPRPRPDLIPRP
  shrunken log2 fold change: 0.235

## RRIRNRPPRLPRPRPRPPWAPRP
  shrunken log2 fold change: 0.38

## RRIRERPPRLPRPRPRPFPDPRP
  shrunken log2 fold change: -0.00133

## RRIRVRPPRLPRPRPRPAYTPRP
  shrunken log2 fold change: -0.286

## RRIRNRPPRLPRPRPRPWRFPRP
  shrunken log2 fold change: -0.0929

## RRIRWRPPRLPRPRPRPWQTPRP
  shrunken log2 fold change: -0.0178

## RRIRCRPPRLPRPRPRPEVEPRP
  shrunken log2 fold change: 0.254

## RRIRNRPPRLPRPRPRPNCEPRP
  shrunken log2 fold change: -0.185

## RRIRSRPPRLPRPRPRPNCFPRP
  shrunken log2 fold change: 0.0876

## RRIRKRPPRLPRPRPRPANNPRP
  shrunken log2 fold change: 0.0823

## RRIRHRPPRLPRPRPRPWRLPRP
  shrunken log2 fold change: -0.0125

## RRIRDRPPRLPRPRPRPKMSPRP
  shrunken log2 fold change: -0.0119

## RRIRCRPPRLPRPRPRPQYNPRP
  shrunken log2 fold change: -1.36

## RRIRGRPPRLPRPRPRPFNWPRP
  shrunken log2 fold change: 0.153

## RRIRNRPPRLPRPRPRPNMHPRP
  shrunken log2 fold change: -0.433

## RRIRPRPPRLPRPRPRPPIWPRP
  shrunken log2 fold change: 0.268

## RRIRSRPPRLPRPRPRPCGVPRP
  shrunken log2 fold change: 0.0491

## RRIRKRPPRLPRPRPRPFQIPRP
  shrunken log2 fold change: 0.0332

## RRIRRRPPRLPRPRPRPDVSPRP
  shrunken log2 fold change: -0.0463

## RRIRNRPPRLPRPRPRPSYEPRP
  shrunken log2 fold change: -0.999

## RRIRDRPPRLPRPRPRPKPNPRP
  shrunken log2 fold change: 0.45

## RRIRRRPPRLPRPRPRPVISPRP
  shrunken log2 fold change: 0.104

## RRIRCRPPRLPRPRPRPWVDPRP
  shrunken log2 fold change: -0.00886

## RRIRQRPPRLPRPRPRPGEPPRP
  shrunken log2 fold change: -0.00996

## RRIRPRPPRLPRPRPRPMGSPRP
  shrunken log2 fold change: -0.0938

## RRIRQRPPRLPRPRPRPSKFPRP
  shrunken log2 fold change: -0.246

## RRIRPRPPRLPRPRPRPYICPRP
  shrunken log2 fold change: -0.149

## RRIRIRPPRLPRPRPRPSFGPRP
  shrunken log2 fold change: -0.389

## RRIRGRPPRLPRPRPRPCFCPRP
  shrunken log2 fold change: 0.609

## RRIRPRPPRLPRPRPRPQAYPRP
  shrunken log2 fold change: -0.215

## RRIRDRPPRLPRPRPRPEGGPRP
  shrunken log2 fold change: 0.966

## RRIRFRPPRLPRPRPRPCARPRP
  shrunken log2 fold change: 0.232

## RRIRERPPRLPRPRPRPKVDPRP
  shrunken log2 fold change: 0.0519

## RRIRKRPPRLPRPRPRPVYWPRP
  shrunken log2 fold change: -0.0795

## RRIRCRPPRLPRPRPRPWDHPRP
  shrunken log2 fold change: -0.259

## RRIRDRPPRLPRPRPRPGRNPRP
  shrunken log2 fold change: -0.495

## RRIRMRPPRLPRPRPRPCHIPRP
  shrunken log2 fold change: -0.0247

## RRIRQRPPRLPRPRPRPPIWPRP
  shrunken log2 fold change: 0.113

## RRIRIRPPRLPRPRPRPQIDPRP
  shrunken log2 fold change: -2.56

## RRIRVRPPRLPRPRPRPNSIPRP
  shrunken log2 fold change: 0.0266

## RRIRHRPPRLPRPRPRPGAQPRP
  shrunken log2 fold change: 0.187

## RRIRIRPPRLPRPRPRPWPNPRP
  shrunken log2 fold change: -0.0754

## RRIRARPPRLPRPRPRPGKHPRP
  shrunken log2 fold change: 0.089

## RRIRMRPPRLPRPRPRPLYIPRP
  shrunken log2 fold change: -1.01

## RRIRGRPPRLPRPRPRPGNQPRP
  shrunken log2 fold change: -0.0828

## RRIRNRPPRLPRPRPRPTLGPRP
  shrunken log2 fold change: 0.3

## RRIRVRPPRLPRPRPRPIDYPRP
  shrunken log2 fold change: 0.0808

## RRIRHRPPRLPRPRPRPEFDPRP
  shrunken log2 fold change: 0.12

## RRIRWRPPRLPRPRPRPRLEPRP
  shrunken log2 fold change: 0.778

## RRIRNRPPRLPRPRPRPCFPPRP
  shrunken log2 fold change: -0.312

## RRIRVRPPRLPRPRPRPMFHPRP
  shrunken log2 fold change: -0.22

## RRIRCRPPRLPRPRPRPAVLPRP
  shrunken log2 fold change: -0.218

## RRIRIRPPRLPRPRPRPAMQPRP
  shrunken log2 fold change: 0.0843

## RRIRARPPRLPRPRPRPQTWPRP
  shrunken log2 fold change: 0.279

## RRIRHRPPRLPRPRPRPCLTPRP
  shrunken log2 fold change: -0.0273

## RRIRARPPRLPRPRPRPQVCPRP
  shrunken log2 fold change: 0.0435

## RRIRTRPPRLPRPRPRPVTMPRP
  shrunken log2 fold change: -0.289

## RRIRWRPPRLPRPRPRPYREPRP
  shrunken log2 fold change: -0.773

## RRIRWRPPRLPRPRPRPIKAPRP
  shrunken log2 fold change: 0.00489

## RRIRRRPPRLPRPRPRPDGIPRP
  shrunken log2 fold change: 0.282

## RRIRGRPPRLPRPRPRPKMCPRP
  shrunken log2 fold change: 0.102

## RRIRCRPPRLPRPRPRPCSYPRP
  shrunken log2 fold change: -0.895

## RRIRCRPPRLPRPRPRPTDKPRP
  shrunken log2 fold change: -0.243

## RRIRWRPPRLPRPRPRPSQPPRP
  shrunken log2 fold change: -0.0613

## RRIRNRPPRLPRPRPRPVNNPRP
  shrunken log2 fold change: -0.647

## RRIRTRPPRLPRPRPRPWIIPRP
  shrunken log2 fold change: -0.228

## RRIRFRPPRLPRPRPRPAWGPRP
  shrunken log2 fold change: 0.144

## RRIRIRPPRLPRPRPRPYDGPRP
  shrunken log2 fold change: -0.0104

## RRIRLRPPRLPRPRPRPNDCPRP
  shrunken log2 fold change: 0.0412

## RRIRARPPRLPRPRPRPRFIPRP
  shrunken log2 fold change: -0.259

## RRIRIRPPRLPRPRPRPYDWPRP
  shrunken log2 fold change: -0.593

## RRIRKRPPRLPRPRPRPHMQPRP
  shrunken log2 fold change: -0.0772

## RRIRRRPPRLPRPRPRPDVLPRP
  shrunken log2 fold change: 0.0203

## RRIRWRPPRLPRPRPRPLAIPRP
  shrunken log2 fold change: 0.0258

## RRIRYRPPRLPRPRPRPTFWPRP
  shrunken log2 fold change: 0.0421

## RRIRNRPPRLPRPRPRPSHMPRP
  shrunken log2 fold change: -0.883

## RRIRYRPPRLPRPRPRPINCPRP
  shrunken log2 fold change: -0.122

## RRIRPRPPRLPRPRPRPDSWPRP
  shrunken log2 fold change: 0.392

## RRIRRRPPRLPRPRPRPQAYPRP
  shrunken log2 fold change: 0.0231

## RRIRPRPPRLPRPRPRPEDTPRP
  shrunken log2 fold change: 0.174

## RRIRSRPPRLPRPRPRPQDWPRP
  shrunken log2 fold change: -0.0642

## RRIRFRPPRLPRPRPRPCSYPRP
  shrunken log2 fold change: -0.344

## RRIRYRPPRLPRPRPRPHHGPRP
  shrunken log2 fold change: 0.0431

## RRIRMRPPRLPRPRPRPGCVPRP
  shrunken log2 fold change: 0.967

## RRIRYRPPRLPRPRPRPWCRPRP
  shrunken log2 fold change: -0.414

## RRIRIRPPRLPRPRPRPPTMPRP
  shrunken log2 fold change: -0.0339

## RRIRSRPPRLPRPRPRPRNAPRP
  shrunken log2 fold change: 0.374
